Legend:
[1] = target: insect HSP90 from Trichoplusia ni (Trichoplusia ni (endogenous in Tni-FNL cells)); test: mass photometry; purified RAF1-HSP90-CDC37 complex
[2] = target: human full-length RAF1 (residues 1-648) with C-terminal His6 (human) (UniProt P04049); test: mass photometry; purified RAF1-HSP90-CDC37 complex

insect HSP90 from Trichoplusia ni (natural protein)
stoichiometry N [1]: 2
stoichiometry N [2]: 2

— paper PMC10908828
